# Measured values taken from the supplement of paper PMC9112550, “Optimization of the antimicrobial peptide Bac7 by deep mutational scanning” (BMC Biology, 2022).
# Test system: Escherichia coli TOP10
# Experiment: shrunken log2 fold change of peptide-encoding DNA abundance (4.5 h post-induction vs induction); higher = less antimicrobial activity (less host growth inhibition)
# Conditions: time post-induction: 4.5 h; library: site-saturation at positions 5, 18, 19, 20
# 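Also: peptides expressed intracellularly from a pBAD plasmid library in pooled LB shake-flask culture, induced with 0.3% L-arabinose, DNA abundance read by NGS, three biological replicates, DESeq2 with apeglm shrinkage.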
row,Sequence,shrunken log2 fold change
1,RRIRGRPPRLPRPRPRPFNAPRP,-0.132
2,RRIRRRPPRLPRPRPRPGYKPRP,-0.0679
3,RRIRHRPPRLPRPRPRPCSYPRP,-0.0203
4,RRIRLRPPRLPRPRPRPVPPPRP,0.245
5,RRIRWRPPRLPRPRPRPPFAPRP,0.544
6,RRIRDRPPRLPRPRPRPCWWPRP,0.249
7,RRIRVRPPRLPRPRPRPHANPRP,0.25
8,RRIRSRPPRLPRPRPRPDCKPRP,-0.0745
9,RRIRKRPPRLPRPRPRPKRQPRP,0.0282
10,RRIRMRPPRLPRPRPRPPCRPRP,0.584
11,RRIRWRPPRLPRPRPRPMHDPRP,0.229
12,RRIRWRPPRLPRPRPRPNYFPRP,-0.167
13,RRIRSRPPRLPRPRPRPFKKPRP,0.0549
14,RRIRSRPPRLPRPRPRPLPKPRP,0.493
15,RRIRQRPPRLPRPRPRPNNFPRP,-0.17
16,RRIRCRPPRLPRPRPRPKSKPRP,-0.338
17,RRIRHRPPRLPRPRPRPSNEPRP,-0.271
18,RRIRLRPPRLPRPRPRPRVAPRP,0.272
19,RRIRERPPRLPRPRPRPAVLPRP,0.034
20,RRIRCRPPRLPRPRPRPTWIPRP,0.24
21,RRIRHRPPRLPRPRPRPHYLPRP,0.0305
22,RRIRRRPPRLPRPRPRPWSNPRP,-0.226
23,RRIRGRPPRLPRPRPRPFNHPRP,-0.357
24,RRIRIRPPRLPRPRPRPFAGPRP,0.0391
25,RRIRTRPPRLPRPRPRPSFNPRP,-0.507

row,Sequence,shrunken log2 fold change
1,RRIRRRPPRLPRPRPRPENGPRP,0.401
2,RRIRIRPPRLPRPRPRPTLCPRP,0.0503
3,RRIRLRPPRLPRPRPRPAQYPRP,-0.0702
4,RRIRRRPPRLPRPRPRPVDTPRP,0.0438
5,RRIRYRPPRLPRPRPRPTWEPRP,-0.0387
6,RRIRWRPPRLPRPRPRPKTSPRP,0.104
7,RRIRLRPPRLPRPRPRPKRFPRP,0.104
8,RRIRMRPPRLPRPRPRPYEAPRP,0.029
9,RRIRHRPPRLPRPRPRPGFIPRP,0.043
10,RRIRERPPRLPRPRPRPHAKPRP,0.0118
11,RRIRRRPPRLPRPRPRPIGTPRP,0.00964
12,RRIRWRPPRLPRPRPRPLEHPRP,0.165
13,RRIRHRPPRLPRPRPRPMFKPRP,-0.625
14,RRIRQRPPRLPRPRPRPETYPRP,-0.213
15,RRIRIRPPRLPRPRPRPRESPRP,0.133
16,RRIRMRPPRLPRPRPRPHHTPRP,-0.263
17,RRIRYRPPRLPRPRPRPCACPRP,0.0891
18,RRIRERPPRLPRPRPRPVDWPRP,0.0136
19,RRIRPRPPRLPRPRPRPPQHPRP,0.485
20,RRIRDRPPRLPRPRPRPRLEPRP,0.387
21,RRIRNRPPRLPRPRPRPCVSPRP,0.0348
22,RRIRSRPPRLPRPRPRPCVMPRP,0.0389
23,RRIRLRPPRLPRPRPRPIQRPRP,-0.00804
24,RRIRVRPPRLPRPRPRPMHMPRP,-0.164
25,RRIRNRPPRLPRPRPRPWWLPRP,-0.106
